These results are taken from paper PMC4844702, “Selective inhibition of the kinase DYRK1A by targeting its folding process” (Nature Communications, 2016).

What all share (test): co-IP; CDC37-nanoKAZ interaction assay: cleared lysates (HENG buffer, 50 mM HEPES-KOH pH 7.9, 150 mM NaCl, 20 mM Na2MoO4, 0.5% Triton X-100) of 293T cells added to 96-well plates coated with anti-FLAG M2, 4 °C for 3 h; luminescence of the captured CDC37-nanoKAZ normalized to the amount of captured 3xFLAG-DYRK1A; in some experiments cells were treated with FINDY or RD0392 for 24 h before lysis
Holding throughout (conditions): partners not purified

Assay [1] concerns the target T1, 3xFLAG-DYRK1A Y319F/Y321F (human, UniProt Q13627 1-763, Y319F | Y321F).
T1 construct: DYRK1A, the variant in which Ser529 corresponds to Ser520 of the other variant; As m2 with the two substitutions; also called Y319F/Y321F mutant; Y321F/Y319F; source: 293T cells, transiently transfected, in lysate

The next assay concerns the target T2, 3xFLAG-DYRK1A Y321F (human, UniProt Q13627 1-763, Y321F).
T2 construct: DYRK1A, the variant in which Ser529 corresponds to Ser520 of the other variant; As m2 with the substitution; also called Y321F mutant; source: 293T cells, transiently transfected, in lysate

A further assay addresses T3, 3xFLAG-DYRK1A S97A (human, UniProt Q13627 1-763, S97A).
T3 construct: DYRK1A, the variant in which Ser529 corresponds to Ser520 of the other variant; As m2 with the substitution; also called S97A mutant; source: 293T cells, transiently transfected, in lysate

Another assay has as its target T4, 3xFLAG-DYRK1A K188R (human, UniProt Q13627 1-763, K188R).
T4 construct: DYRK1A, the variant in which Ser529 corresponds to Ser520 of the other variant; As m2 with the substitution; also called K188R mutant; kinase-dead mutant; source: 293T cells, transiently transfected, in lysate

B1: CDC37 fused with luciferase nanoKAZ (natural protein, UniProt Q16543 1-378, looked up)
chain: MVDYSVWDHIEVSDDEDETHPNIDTASLFRWRHQARVERMEQFQKEKEELDRGCRECKRKVAECQRKLKELEVAEGGKAELERLQAEAQQLRKEERSWEQKLEEMRKKEKSMPWNVDTLSKDGFSKSMVNTKPEKTEEDSEEVREQKHKTFVEKYEKQIKHFGMLRRWDDSQKYLSDNVHLVCEETANYLVIWCIDLEVEEKCALMEQVAHQTIVMQFILELAKSLKVDPRACFRQFFTKIKTADRQYMEGFNDELEAFKERVRGRAKLRIEKAMKEYEEEERKKRLGPGGLDPVEVYESLPEELQKCFDVKDVQMLQDAISKMDPTDAKYHMQRCIDSGLWVPNSKASEAKEGEEAGPGDPLLEAVPKTGDEKDVSV
notes: kinase-specific co-chaperone CDC37; also called CDC37-nanoKAZ; source: 293T cells stably expressing CDC37-nanoKAZ, in lysate
Take B1: the “fold change of luminescence relative to intact DYRK1A” value in assay [1] came out at 6.2 fold; with 3xFLAG-DYRK1A Y321F it was 5.2 fold; with 3xFLAG-DYRK1A S97A, 2.2 fold; with 3xFLAG-DYRK1A K188R, 54 fold.
